Target: CaV1.2 IQ domain TripleA mutant (CaV1.2 F1618A, F1619A, Y1622A) (human)
Experiment: ITC

B1: CaBP1 C-terminal lobe (domain or fragment)
chain: IGVKELRDAFREFDTNGDGEISTSELREAMRKLLGHQVGHRDIEEIIRDVDLNGDGRVDFEEFVRMMSR
- Kd: 221 nM
- dH: -1.45 ± 0.14 kcal/mol
- stoichiometry N: 0.93 ± 0.01
